Publication PMC12219266, “The molecular basis for acetylhistidine synthesis by HisAT/NAT16” (Nature Communications, 2025)

T1: NAT16 (HisAT) (Homo sapiens, UniProt Q8N8M0)
T1 construct: full length (369 aa), C-terminal 6xHis tag kept, codon-optimised, pFastBac1, Sf9 insect cells
T1 sequence (Q8N8M0 1-369): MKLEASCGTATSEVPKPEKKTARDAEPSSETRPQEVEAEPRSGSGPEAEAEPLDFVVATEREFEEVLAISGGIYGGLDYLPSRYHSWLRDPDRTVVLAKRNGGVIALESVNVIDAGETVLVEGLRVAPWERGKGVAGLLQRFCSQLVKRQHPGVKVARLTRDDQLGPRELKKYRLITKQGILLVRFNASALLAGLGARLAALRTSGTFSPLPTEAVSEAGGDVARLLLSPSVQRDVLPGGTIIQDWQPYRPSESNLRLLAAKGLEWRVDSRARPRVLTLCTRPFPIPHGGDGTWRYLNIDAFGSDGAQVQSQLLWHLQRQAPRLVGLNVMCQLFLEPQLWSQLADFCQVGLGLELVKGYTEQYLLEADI


How the values were obtained:
NAT16 (HisAT) = biological target: T1, NAT16 (HisAT); assay: DTNB real-time assay, Michaelis-Menten fit; assay type: biochemical; details: 50 µM Ac-CoA; 50 mM Na-phosphate pH 7.5, 37 °C
[1] = substrate: CC(=O)SCCNC(=O)CCNC(=O)[C@H](O)C(C)(C)COP(=O)(O)OP(=O)(O)OC[C@H]1O[C@@H](n2cnc3c(N)ncnc32)[C@H](O)[C@@H]1OP(=O)(O)O; assay: DTNB real-time assay, initial rates, ternary complex model, secondary plots; assay type: biochemical, Homo sapiens; details: varied with L-histidine, 50 mM Na-phosphate pH 7.5, 100 mM NaCl, 1 mM EDTA, 37 °C
Excerpt: (§1) DTNB real-time assay, initial rates, ternary complex model, secondary plots on NAT16 (HisAT)

[2] = substrate: N[C@@H](Cc1c[nH]cn1)C(=O)O; assay: as above; assay type: biochemical, Homo sapiens; details: varied with Ac-CoA, 50 mM Na-phosphate pH 7.5, 100 mM NaCl, 1 mM EDTA, 37 °C
Excerpt: as §1

Row | Molecule | apparent KM (NAT16 (HisAT)) | Km [1] | kcat [1] | kcat/Km [1] | Km [2] | kcat [2] | kcat/Km [2]
1 | NCCCC[C@H](N)C(=O)O [lysine] | determined the apparent kcat and KM with arginine and lysine | – | – | – | – | – | –
2 | N=C(N)NCCC[C@H](N)C(=O)O [arginine] | determined the apparent kcat and KM with arginine and lysine | – | – | – | – | – | –
3 | NAT16 (HisAT) (Homo sapiens) (protein, full length (369 aa), C-terminal 6xHis tag kept, codon-optimised, pFastBac1, Sf9 insect cells) MKLEASCGTATSEVPKPEKKTARDAEPSSETRPQEVEAEPRSGSGPEAEAEPLDFVVATEREFEEVLAISGGIYGGLDYLPSRYHSWLRDPDRTVVLAKRNGGVIALESVNVIDAGETVLVEGLRVAPWERGKGVAGLLQRFCSQLVKRQHPGVKVARLTRDDQLGPRELKKYRLITKQGILLVRFNASALLAGLGARLAALRTSGTFSPLPTEAVSEAGGDVARLLLSPSVQRDVLPGGTIIQDWQPYRPSESNLRLLAAKGLEWRVDSRARPRVLTLCTRPFPIPHGGDGTWRYLNIDAFGSDGAQVQSQLLWHLQRQAPRLVGLNVMCQLFLEPQLWSQLADFCQVGLGLELVKGYTEQYLLEADI | – | 19.8 ± 4.5 µM | 36.5 ± 4.6 s⁻¹ | 1.9e+06 M⁻¹ s⁻¹ | 215 ± 53 µM | 36.5 ± 4.6 s⁻¹ | 177000 M⁻¹ s⁻¹
